Sequences and labels used below:
T1: extracellular domain of activin receptor type IIB (ActRIIBecd), biotinylated (Homo sapiens (Human), UniProt Q13705 27-117, amino-biotinylated with amine-PEG3-Biotin)
T1 construct: immobilised on a streptavidin-coated sensor chip; also called biotinylated ActRIIBecd; extracellular domain of ActRIIB
T1 sequence: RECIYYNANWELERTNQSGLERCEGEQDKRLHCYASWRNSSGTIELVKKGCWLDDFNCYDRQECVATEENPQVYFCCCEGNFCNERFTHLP

B1: SEQ ID NO: 308, cysteine pairs C88-C92^a (designed binder)
chain: NSKDPKACCVPTELSAPSPLYLDENEKPVLKNYQDMVVHGCGCRGQAKRKGYKRLKSSCKRHPLYVDFKDVGWNDHAVAPPGYHAFYCHGECPFPLADHLNSDNHAIVQTKVNSV
modifications: disulfides C88-C92 (intra)
B2: SEQ ID NO: 308, cysteine pairs C8-C43^a, C9-C41^a, C88-C92^a (designed binder)
chain: B1 chain
modifications: disulfides C8-C43 (intra), C9-C41 (intra), C88-C92 (intra)
B3: SEQ ID NO: 340, cysteine pairs C88-C92^a (designed binder)
chain: AQAKHKQRKRLKSSCKRHPLYNSKDPKACCVPTELSAPSPLYLDENEKPVLKNYQDMVVHGCGCRVDFKDVGWNDHAVAPPGYHAFYCHGECPFPLADHLNSDNHAIVQTKVNSV
modifications: disulfides C88-C92 (intra)
B4: SEQ ID NO: 316, cysteine pairs C67-C71^a (designed binder)
chain: NSKDPKACCVPTELSAPSPLYLDENEKPVLKNYQDMVVHGCGCRVDFKDVGWNDHAVAPPGYHAFYCHGECPFPLADHLNSDNHAIVQTKVNSVGQAKRKGYKRLKSSCKRHPLY
modifications: disulfides C67-C71 (intra)
B5: SEQ ID NO: 276, cysteine pairs C67-C71^a (designed binder)
chain: NSKIPKACCVPTELSAISMLYLDENEKVVLKNYQDMVVEGCGCRVDFSDVGWNDWIVAPPGYHAFYCHGECPFPLADHLNSTNHAIVQTLVNSVAQAKHKQRKRLKSSCKRHPLY
modifications: disulfides C67-C71 (intra)
B6: SEQ ID NO: 348, cysteine pairs C88-C92^a (designed binder)
chain: GQAKRKGYKRLKSSCKRHPLYNSKIPKACCVPTELSAISMLYLDENEKVVLKNYQDMVVEGCGCRVDFSDVGWNDWIVAPPGYHAFYCHGECPFPLADHLNSTNHAIVQTLVNSV
modifications: disulfides C88-C92 (intra)
B7: SEQ ID NO: 260, cysteine pairs C15-C15^b, C80-C114^b, C79-C112^b, C44-C48^a (designed binder)
chain: AQAKHKQRKRLKSSCKRHPLYVDFSDVGWNDWIVAPPGYHAFYCHGECPFPLADHLNSTNHAIVQTLVNSVNSKIPKACCVPTELSAISMLYLDENEKVVLKNYQDMVVEGCGCR
modifications: disulfides C15-C15 (inter), C80-C114 (inter), C79-C112 (inter), C44-C48 (intra)
notes: homodimer by intermolecular disulfide
B8: SEQ ID NO: 260, cysteine pairs C79-C114^b, C80-C112^b, C44-C48^a (designed binder)
chain: B7 chain
modifications: disulfides C79-C114 (inter), C80-C112 (inter), C44-C48 (intra)
notes: as for B7
B9: SEQ ID NO: 260, cysteine pairs C79-C114^a, C80-C112^a, C44-C48^a (designed binder)
chain: B7 chain
modifications: disulfides C79-C114 (intra), C80-C112 (intra), C44-C48 (intra)
B10: SEQ ID NO: 260, cysteine pairs C44-C48^a (designed binder)
chain: B7 chain
modifications: disulfides C44-C48 (intra)
B11: SEQ ID NO: 260, cysteine pairs C15-C15^b, C79-C114^b, C80-C112^b, C44-C48^a (designed binder)
chain: B7 chain
modifications: disulfides C15-C15 (inter), C79-C114 (inter), C80-C112 (inter), C44-C48 (intra)
notes: as for B7
B12: SEQ ID NO: 324, cysteine pairs C44-C48^a (designed binder)
chain: B7 chain with S25K, W32H, I33A, T59D, L67K
modifications: disulfides C44-C48 (intra)
B13: SEQ ID NO: 284, cysteine pairs C88-C92^a (designed binder)
chain: NSKIPKACCVPTELSAISMLYLDENEKVVLKNYQDMVVEGCGCRAQAKHKQRKRLKSSCKRHPLYVDFSDVGWNDWIVAPPGYHAFYCHGECPFPLADHLNSTNHAIVQTLVNSV
modifications: disulfides C88-C92 (intra)

Residue numbers refer to the chain shown, from its start.

What is called Kd is the free concentration of one partner at which half of the binding sites on the other are occupied at equilibrium, for simple one-to-one binding. The low end stands for tighter binding, the high end for weaker binding.

This assay has as its target T1, extracellular domain of activin …. Nature of the assay: Mean KD column of Table 5; method not restated (BIAcore as Example 5). The procedure: Biosensor experiments. In one embodiment, experiments were performed on a BIAcore™ T100/T200 instrument (Pharmacia Biosensor AB) in the multichannel mode (serial flow path involving flow cells 1+2+3+4). Flow rate was 10 μl/min; temperature was 25° C.; and data were recorded at 2.5 points/s. All four segments of a sensor chip CMS were coated with streptavidin (Sigma) to a density of 2000 pg/mm² (2000 resonance units) by the aminocoupling procedure. ActRIIBecd (10 mg) and amine-PEG3-Biotin (10 mg, Pierce, Rockford, Ill.) were dissolved in 200 μl H₂O and 10 mg NaCNBH₃ was added to prepare biotinylated ActRIIBecd. The reaction mixture was heated at 70° C. for 24 h, after that a further 10 mg NaCNBH₃ was added and the reaction was heated at 70° C. for another 24 h. After cooling to room temperature, the mixture was desalted with the spin column (3,000 molecular weight cut off (MWCO)). Biotinylated ActRIIBecd was collected, freeze-dried and used for streptavidin (SA) chip preparation. Amino-biotinylated ActRIIBecd was then immobilized independently on flow cells 2-4 for 10 minutes at a flow rate of 5 μL/min and a concentration of 20 μM in 10 mM sodium acetate, pH 4.0, at a density of 50-250 resonance units (RU). The stored polypeptides were dissolved in glycine buffer (2.5 g of glycine, 0.5 g of sucrose, 370 mg of L-glutamate, 10 mg of sodium chloride, and 10 mg of Tween 80 in 100 mL water, pH 4.5) to prepare 10 mg/mL solution and then diluted with previous glycine buffer to prepare analytes with various concentration. Sensograms were recorded during flow of the analyte (the ActRIIBecd-associated polypeptides (i.e., domains) as previously described) first through flow cell 1 (control) then through flow cell 2 (biotinylated ActRIIBecd). The sensogram obtained for flow cell 1 was subtracted from the sensogram obtained for flow cell 2. The sensograms obtained at 1.11, 3.33, 10, 30, and 90 nM analyte were evaluated for equilibrium binding, association rate, and dissociation rate by using the programs supplied with the instrument (BIA evaluation 2.1; Software Handbook. 1995; Pharmacia Biosensor AB).
In general terms: In SPR one partner is held on a chip, and binding of the other changes the refractive index at the surface.
B1 gave a dissociation constant Kd of 7.8 nM.

On to B2, for which the dissociation constant Kd came to 10.9 nM.

Regarding B3, binding was characterised by a dissociation constant (Kd) of 5.64 nM.

In the case of B4, the dissociation constant (Kd) worked out at 4.67 nM.

In the case of B5, binding was put at a Kd of 7.41 nM.

On to B6, for which the Kd was found to be 4.51 nM.

As to B7, the Kd was determined as 4.04 nM.

Turning to B8, binding was characterised by a dissociation constant (Kd) of 6.05 nM.

B9 displayed a Kd of 6.17 nM.

As for B10, binding was characterised by a dissociation constant (Kd) of 8.04 nM.

For the molecule B11, the Kd was 4.03 nM.

As for B12, the Kd was 8.75 nM.

For the molecule B13, binding was put at a Kd of 8.14 nM.

These data come from patent US20190071480A1 (Biogen, published 2019).
